In the DeepSol protein solubility set:

test: soluble on expression in E. coli; label from the status in PepcDB or PDB records

Sequence | soluble on expression in E. coli
MGSDKIHHHHHHMENLGDRLEVVAELSLAPGNITLTPDGRLFLSLHQFYQPEMQVAELTQDGLIPFPPQSGNAIITFDTVLGIKSDGNGIVWMLDNGNQSKSVPKLVAWDTLNNQLSRVIYLPPPITLSNSFVNDLAVDLIHNFVYISDPAPDDKAALIRVDLQTGLAARVLQGYPGIAPEDIDLVIDGVPVQIGQPDGTVIRPHLGVNGIVLDAENEWLYLSPMHSTSMYRIKSADLSNLQLTDAELGSKIERYSEKPICDGISIDKDHNIYVGDLAHSAIGVITSADRAYKLLVTDEKLSWTDSFNFGSDGYLYFDCNQLHHSAPLNAGENISAPPYYIFRLKPLAAGIVGR | not soluble
MSLVEDVKGVGFKTADKIASSLGIEADSPNRFRAALMHEVNTHSQSTGDTYIEAKNLLEMTIDLLEEARNVEVNPSAVAEEINGLIVDGKVQQEGTKIFENSLYFAEDGIRKSLTALTNRSGKDFADEKLLTVLAEVERDLEITYDDLQKQAIIGAMNQQFFILTGGPGTGKTTIINGFIETYARLHQLDLDPDHYNDDVFPILLAAPTGRASRRMNELTGLPAATIHRHLGLGQDEAEDALGNELSGALLIVDEFSMVDTWLANKLFQAIPGSMKVLLVGDADQLPSVGPGQIFADLLKIPEIPSVKLDKIFRQGDDSTITDLAHHIKDGQLPSDFTAKKPDRSYFEVSANFVPQMVEQIASAWQKRGNNPFELQILAPMYKGMAGINAMNVLLQNLFNPLNDRLEFALGDMKFREGDKVLHLVNDAEANVFNGDLGQIVELIAAKYTDSKQDELVMDFDGQELTYPRAEWYKITLAYAMSIHKSQGSEFSTVIVPMVSSYSRMLERNLLYTAITRAKQSLILLGEERAFAQAVAREGANRKTYLIERFMGENEGHHHHHH | soluble
MSLPAPQDPRNLPIRQQMEALIRRKQAEITQGLESIDTVKFHADTWTRGNDGGGGTSMVIQDGTTFEKGGVNVSVVYGQLSPAAVSAMKADHKNLRLPEDPKTGLPVTDGVKFFACGLSMVIHPVNPHAPTTHLNYRYFETWNQDGTPQTWWFGGGADLTPSYLYEEDGQLFHQLHKDALDKHDTALYPRFKKWCDEYFYITHRKETRGIGGIFFDDYDERDPQEILNMVEDCFDAFLPSYLTIVKRRKDMPYTKEEQQWQAIRRGRYVEFNLIYDRGTQFGLRTPGSRVESILMSLPEHASWLYNHHPAPGSREAKLLEVTTKPREWVKEGHHHHHH | soluble
MIQHTMLKLYWANFTTAQLHHLTSTYPDFLSENVFHQHDMIKRWLTERNSERLWNKYERFKELKLMDIIKEMKKANVSFTTYFDDNYPSLCKEMYDYPYVIFYKGNPQFFNHSHSLAVIGSRNATQYTSQSLNYLFPSFRQLNMAIVSGLARGADSVAHQTALKYLLPTIGVLGFGHCYHYPKATLNLRTKVERNGLVISEYPPFSPISKHKFPERNRLISGLSRGVLITEAEERSGSQITIDCALEQNRNVYVLPGSMFNKMTKGNLRRINEGAQVVIDESSILYDYLF | not soluble
MRSKYIVIEGLEGAGKTTARNVVVETLEQLGIRDMVFTREPGGTQLAEKLRSLLLDIKSVGDEVITDKAEVLMFYAARVQLVETVIKPALANGTWVIGDRHDLSTQAYQGGGRGIDQHMLATLRDAVLGDFRPDLTLYLDVTPEVGLKRARARGELDRIEQESFDFFNRTRARYLELAAQDKSIHTIDATQPLEAVMDAIRTTVTHWVKELDA | soluble
MGSDKIHHHHHHMSRDAPIKADKDYSQILKEEFPKIDSLAQNDCNSALDQLLVLEKKTRQASDLASSKEVLAKIVDLLASRNKWDDLNEQLTLLSKKHGQLKLSIQYMIQKVMEYLKSSKSLDLNTRISVIETIRVVTENKIFVEVERARVTKDLVEIKKEEGKIDEAADILCELQVETYGSMEMSEKIQFILEQMELSILKGDYSQATVLSRKILKKTFKNPKYESLKLEYYNLLVKISLHKREYLEVAQYLQEIYQTDAIKSDEAKWKPVLSHIVYFLVLSPYGNLQNDLIHKIQNDNNLKKLESQESLVKLFTTNELMRWPIVQKTYEPVLNEDDLAFGGEANKHHWEDLQKRVIEHNLRVISEYYSRITLLRLNELLDLTESQTETYISDLVNQGIIYAKVNRPAKIVNFEKPKNSSQLLNEWSHNVDELLEHIETIGHLITKEEIMHGLQAK | not soluble
MVEFSKESSTRVSVNSQRQISHVQKRELTKRKSVRFETQTVESTSEFVGKTNQEWTFVADCFNLDKETRSEREQELLSLCNFFDSNEKELELSDASDESDDSVPFELFAEQGMRIAWTQIVTSPSLSNLRLASILRFDTKKKIVSPFIEDEKSPQEFFLDDNEAVENAFKGVLPCTNSQKVSRSRRASKSEEENDFVTAKGSDFWSDVEF | not soluble
MQPDLHCRTLAAHTLKHFRALSPLTHCMTNDVVQTFTANTLLALGASPAMVIDPVEARPFAAIANALLINVGTLTASRADAMRAAVESAYDAKTPWTLDPVAVGALEFRRRFCLDLLSLRPAAIRGNASEILALSGMALGGRGVDTTEAALAALPAAQALARQIDCIVVVTGEIDYVTNGQRTLSIPGGDPLMTRIVGTGCALSAVVAASCALPGAALDNVASACCWMKLAGQAAAERSEGPGSFIPAFLDALYHLDVEAANATN | not soluble
MITVSIVSHGQSTLVEQLLADLVRLDMSMVTEVLVTLNIPEDISSKPGDYPYPVRILRNTAARGFGANHNAAFRQAEGEWFCVMNPDIRLINNPFPILIEEGAYDSAGVIAPMVVTPSGMIEDSVRCFPVLTSLAAKLFGHGDGRYLFAAGDEAFAADWVAGMFMLFRTEDFRAVGGFDEGFFLYYEDVDICARLWKSGRSVLACPKASVIHDARRSSRRNLRYMKWHALSLIRYFWKHWGRLPQTPEQLEHHHHHH | soluble
MGSDKIHHHHHHMSSSDRYMQRGVSSQKEDVHKAIKSIDKGIYPRAFCKIIPDILGGDPEYCNIMHADGAGTKSSLAYVYWKETGDISVWKGIAQDAVIMNIDDLICVGAVDNILLSSTIGRNKNLIPGEVLAAIINGTEEVLQMLRDNGIGIYSTGGETADVGDLVRTIIVDSTVTCRMKRQDVISNENIKAGNVIVGFASYGQTSYETEYNGGMGSNGLTSARHDVFNNVLASKYPESFDPKVPENLVYSGEMNLTDPYLNVPLDAGKLVLSPTRTYAPLMKEIIHQYKGKLDGVVHCSGGGQTKVLHFTDATTHIIKDNLFDVPPLFQLIQGQSNTPWEEMYKVFNMGHRLEIYTDAAHAEGMIAIAKKFNIEAKIIGRVEAPVAGKRLTITGPQGTEYTYA | not soluble
MAHHHHHHMAQRVAIPDDCVYEGYGNLYRGDAEVTPPQPIVGARGGNGVLYGTIDSEEALRQLRTALRVDVHPQLKALVQEKKLDEVASSPASLPWLVCRPNALPLRTLPSSFSSGTRYEIERMKSQCRFLRDWLMCHETPEERVEAREFLRTAQRLLQKESVEELLGRTENLLQQLENWPAVVEKARPHIAEWNNDKSLTELREFVGDVLGTDEVCARLSKLTCRFSLLAPLLEEAAFRSAALEEMEQWSSEATVSSLRSLRASIHDWELRVAKDQQNVLDSSQLLLERIAAVRNKRRESAGDLT | soluble
MGSDKIHHHHHHMNAPLLLRNVGRGESTESGAVPPAVLPPVQPSPTTLQAPDHAARRRIAVFRALQLGDMLCAVPALRALREGEPDAHITLIGLPWVRDFASRFGSLIDDVMVFPGAPGFPERPYDAAALAAFHAEARARRFDLAIQLHGSGTLSNDVVRQLGARTIAGFCPTSAEAALANEHERLLPWPGGNEIERLLGLMRALGYPVVDAHLAFPLRPQDHAGWQRLAELHGLVGGEYICVHPGARMLSRRWPVERFADVALRLRKRWRIVVTGAPDEIMLTHRLCELIGGDVVNLTAATPLGELAALIAHARLLLCNDTGPSHIAAALDTPSVVVSCGGDSDRWAPLDATLHHVLASYPPCRPCNWQKCPIRHECATAITVDAVEAEALSLASRGHDHA | not soluble
MDSADPQLNRFLQQLQAETQRQKFTEQVHTLTGRCWDVCFADYRPPSKMDGKTQTCIQNCVNRMIDASNFMVEHLSKMNGGHV | not soluble
MDYIKGIAFDLYGTLFDVHSVVGRCDEAFPGRGREISALWRQKQLEYTWLRSLMNRYVNFQQATEDALRFTCRHLGLDLDARTRSTLCDAYLRLAPFSEVPDSLRELKRRGLKLAILSNGSPQSIDAVVSHAGLRDGFDHLLSVDPVQVYKPDNRVYELAEQALGLDRSAILFVASNAWDATGARYFGFPTCWINRTGNVFEEMGQTPDWEVTSLRAVVELFETAAGKAEKG | soluble
AHHHHHHASAKWVCKICGYIYDEDAGDPDNGISPGTKFEELPDDWVCPICGAPKSEFEKLEDGSQGYSRRGNMMIILKPLIEVDLPEDFVDIIKAKLKGQTVKSGEIITVDILGKPIEFKVLYAEPSPVKVTQKTQIKFAKGNVFEVSLDFKAKDCIITDAFIVLTGESEVLILNHNFEEIRRIEFENLKKIVVKGDLVVLIGEEKVKILKLQ | soluble
MAHHHHHHMGTLEAQTQGPGSMVTAEAIDQRTFRRVLGQFCTGVTIITTVHEGNPVGFACQSFAALSLDPPLVLFCPTKVSRSWKAIEASGRFCVNILHEKQQHVSARFGSREPDKFAGIDWRPSDLGSPIIDGSLAHIDCTVHDVHDGGDHFVVFGKVHGLSEVPERKPRPLLFYRGEYTGIEPEKNTPAQWRDDLEAFLTATTADTWL | soluble
MPLTLTDRYRGSLLGLACGDALGTSVEFKPRGSFPPVTDLLGGGPFNLKAGQWTDDTSMALCLGESLLRKDGFDPADQMGRYLNWWQWGYLSATGECFDIGMTVRQALADYQEHGQPLAGSSDPQTAGNGSLMRLAPVVLFHYPDLAQVREFAGASSRTTHGAAEAIECCQLLAGLIAKALDGASKQQLQRLDAQGFRESKVAALAQGNYLDKTRDQIRGNGYCVDSLEAALWCFQHSDSYAEAVLAAANLGDDADTTAAIVGQLAGAFYGAQGIPPHWLAKLHMGEEIQAMADDLLAAARRRAPARPLHGSCLCKAVQYRVDRLDMPIGHCHCQTCRKAHAAAFASTAGVMREHFQWTQGQERLSTYESSPGKLRHFCSVCGSHLLAERPGQPHVILRVATLDDDPGQTPQVHIWTSHDVPWLADEALQRWPEWQPSRGLEHHHHHH | not soluble
MAIDFHLSASQKGTYQAARSLARNLLMPARQTYLQHPPNSPLRFQSTQPTYAAAVSAGILKGQISPAHGGTGGTLIESAILVEECYSVEPSAALTIFATGLGLTPINLAAGPQHAEFLAPFLSGEGSPLASLVFSEPGGVANALEKGAPGFQTTARLEGDEWVINGEKMWATNCAGWDFKGCDLACVVCRDATTPLEEGQDPENKVMIILVTRADLDRNGEGSFEVLRHVATPGHTSVSGPHVRYTNVRVPTKNVLCPAGQGAKVAFGAFDGSAVLVGAMGVGLMRAAFDAALKFAKEDNRGGAVPLLERQAFADLLSGVKIQTEAARALTWKAAHAMENGPGDYDARRELALAAKVFCSEAAVKACTDVINAVGISAYDLQRPFSDLLNTAVVLPIFDGGNVGIRRRHLQQLMLKPTYDAWSSTYGSFPGSHHHHHH | soluble
MSLDQAIRRNPNVPVVVRGWLHKQDSSGMRLWKRRWFVLADYCLFYYKDSREEAVLGSIPLPSYVISPVAPEDRISRKYSFKAVHTGMRALIYNSSTAGSQAEQSGMRTYYFSADTQEDMNAWVRAMNQAAQVLSRSSLKRDMEKVERQAVPQANHTEGHHHHHH | soluble
MPQQTVEVKEVDVLIRGIWRKKKFTDIQKGQTFKIEENGRTKKYIARTDPYWDDMFETYIIDLLDKNKIRRNKLEHHHHHH | not soluble
MSELSGKGCEIIVPFEERLPVRDIEKSIIKKYRKNLWSKFMKAIRDYKLVEEGDKIAVAISGGKDSILMAKMFQELKKHGQVNFDVEFIAMDPGYHANIRQLLIDNCEYLNIPIHLFDSRIFEIADEIAKDYPCYMCARMRRGALYSKAEELGCNKLALGHHYDDVIETTMLNLLCAGNFKTMLPKLNSTNFEGIKIIRPLYYIREEHIIRFIQNSGIWPLNCAC | not soluble
